Source: paper PMC3467263, “FXR Controls the Tumor Suppressor NDRG2 and FXR Agonists Reduce Liver Tumor Growth and Metastasis in an Orthotopic Mouse Xenograft Model” (PLoS ONE, 2012)

Molecular target: T1, human FXR^aa187–472 fused to GST (human, UniProt Q96RI1-2 187-472)
T1 construct: Detected in the TR-FRET assay by europium-labelled anti-GST; also called human FXR-LBD; hFXR; source: purified
T1 sequence (looked up): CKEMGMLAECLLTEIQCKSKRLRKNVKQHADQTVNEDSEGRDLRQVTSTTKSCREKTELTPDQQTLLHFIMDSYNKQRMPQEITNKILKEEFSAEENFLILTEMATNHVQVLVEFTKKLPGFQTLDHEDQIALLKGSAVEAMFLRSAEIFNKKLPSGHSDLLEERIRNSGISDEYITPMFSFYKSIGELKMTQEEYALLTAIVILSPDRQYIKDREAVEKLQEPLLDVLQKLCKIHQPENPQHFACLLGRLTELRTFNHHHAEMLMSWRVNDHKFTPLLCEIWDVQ
Assay: FRET or BRET; homogeneous TR-FRET: biotinylated SRC-1 peptide (0.4 µM), 200 ng streptavidin-allophycocyanin, 6 ng europium-labelled anti-GST and 2.5 ng GST-FXR-LBD in 25 µL of 20 mM Tris/HCl pH 7.5, 5 mM MgCl2, 60 mM KCl, 1 mM DTT, 0.9 g/L BSA; 60 min incubation; FXR agonist (GW4064, PX20606 or PX20350) titrated; duplicates
Details: both partners purified

B1: biotinylated SRC-1 peptide b-[residues removed]-COOH (peptide)
peptide: CPSSHSSLTERHKILHRLLQEGSPS
HELM: PEPTIDE1{[O=C1N[C@H]2[C@H](CS[C@H]2CCCCC(=O)[*:2])N1].C.P.S.S.H.S.S.L.T.E.R.H.K.I.L.H.R.L.L.Q.E.G.S.P.S}$$$$V2.0
SMILES: CC[C@H](C)[C@H](NC(=O)[C@H](CCCCN)NC(=O)[C@H](Cc1c[nH]cn1)NC(=O)[C@H](CCCNC(=N)N)NC(=O)[C@H](CCC(=O)O)NC(=O)[C@@H](NC(=O)[C@H](CC(C)C)NC(=O)[C@H](CO)NC(=O)[C@H](CO)NC(=O)[C@H](Cc1c[nH]cn1)NC(=O)[C@H](CO)NC(=O)[C@H](CO)NC(=O)[C@@H]1CCCN1C(=O)[C@H](CS)NC(=O)CCCC[C@@H]1SC[C@@H]2NC(=O)N[C@@H]21)[C@@H](C)O)C(=O)N[C@@H](CC(C)C)C(=O)N[C@@H](Cc1c[nH]cn1)C(=O)N[C@@H](CCCNC(=N)N)C(=O)N[C@@H](CC(C)C)C(=O)N[C@@H](CC(C)C)C(=O)N[C@@H](CCC(N)=O)C(=O)N[C@@H](CCC(=O)O)C(=O)NCC(=O)N[C@@H](CO)C(=O)N1CCC[C@H]1C(=O)N[C@@H](CO)C(=O)O
notes: Coupled to streptavidin-allophycocyanin through its biotin in the assay
binding result: binds
